The source of these data is paper doi:10.1101/2021.09.06.458672.

In the assay the target is plectasin variant D9S Q14K V36L (PPI42). The assay can be described thus: dynamic light scattering.

“plectasin variant D9S Q14K V36L (PPI42) (peptide)” registered a mass fraction of medium sized oligomers and protein fibrils below 2.5 % mass.
